Bridges are numbered along the chain shown (N, C = ends). [ ]: non-standard residue; d: D form. The star is where a group is joined. Bip = N[C@@H](Cc1ccc(-c2ccccc2)cc1)C(=O)O; pGlu = O=C1CC[C@@H](C(=O)O)N1; Lauroyl = CCCCCCCCCCCC(=O)*; Nle = CCCC[C@H](N)C(=O)O; Orn = NCCC[C@H](N)C(=O)O; Dab = NCC[C@H](N)C(=O)O
T1: human APJ receptor (hAPJ) (human, UniProt P35414 1-380)
T1 sequence (looked up): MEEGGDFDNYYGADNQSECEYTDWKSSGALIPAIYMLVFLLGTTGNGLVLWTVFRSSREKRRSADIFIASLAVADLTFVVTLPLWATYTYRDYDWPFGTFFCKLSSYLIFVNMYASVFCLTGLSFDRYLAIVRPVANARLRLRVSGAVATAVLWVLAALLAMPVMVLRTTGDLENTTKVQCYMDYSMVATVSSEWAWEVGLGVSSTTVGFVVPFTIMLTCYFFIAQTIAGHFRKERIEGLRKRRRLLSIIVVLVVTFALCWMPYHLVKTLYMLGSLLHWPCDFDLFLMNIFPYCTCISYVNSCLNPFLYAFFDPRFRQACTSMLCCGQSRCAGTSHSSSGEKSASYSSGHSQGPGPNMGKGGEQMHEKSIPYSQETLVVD

B1: Example 39: pE-R-P-R-L-C-H-K-D-P-Nle-C-F-OH (peptide)
peptide: [pGlu]RPRLCHKDP[Nle]CF-OH
modifications: disulfide 6-12
SMILES: CCCC[C@@H]1NC(=O)[C@@H]2CCCN2C(=O)[C@H](CC(=O)O)NC(=O)[C@H](CCCCN)NC(=O)[C@H](Cc2c[nH]cn2)NC(=O)[C@@H](NC(=O)[C@H](CC(C)C)NC(=O)[C@H](CCCNC(=N)N)NC(=O)[C@@H]2CCCN2C(=O)[C@H](CCCNC(=N)N)NC(=O)[C@@H]2CCC(=O)N2)CSSC[C@@H](C(=O)N[C@@H](Cc2ccccc2)C(=O)O)NC1=O
B2: Example 41: pE-R-P-R-(4-PhF)-C-H-K-G-P-Nle-C-F-OH (peptide)
peptide: [pGlu]RPR[Bip]CHKGP[Nle]CF-OH
modifications: disulfide 6-12
SMILES: CCCC[C@@H]1NC(=O)[C@@H]2CCCN2C(=O)CNC(=O)[C@H](CCCCN)NC(=O)[C@H](Cc2c[nH]cn2)NC(=O)[C@@H](NC(=O)[C@H](Cc2ccc(-c3ccccc3)cc2)NC(=O)[C@H](CCCNC(=N)N)NC(=O)[C@@H]2CCCN2C(=O)[C@H](CCCNC(=N)N)NC(=O)[C@@H]2CCC(=O)N2)CSSC[C@@H](C(=O)N[C@@H](Cc2ccccc2)C(=O)O)NC1=O
B3: Example 27: pE-R-P-R-L-C-K(Lauroyl)-K-G-P-Nle-C-F-OH (peptide)
peptide: [pGlu]RPRLCK(Lauroyl)KGP[Nle]CF-OH
modifications: disulfide 6-12
SMILES: CCCCCCCCCCCC(=O)NCCCC[C@@H]1NC(=O)[C@@H](NC(=O)[C@H](CC(C)C)NC(=O)[C@H](CCCNC(=N)N)NC(=O)[C@@H]2CCCN2C(=O)[C@H](CCCNC(=N)N)NC(=O)[C@@H]2CCC(=O)N2)CSSC[C@@H](C(=O)N[C@@H](Cc2ccccc2)C(=O)O)NC(=O)[C@H](CCCC)NC(=O)[C@@H]2CCCN2C(=O)CNC(=O)[C@H](CCCCN)NC1=O
B4: Example 34: pE-R-K-R-L-C-H-K-G-P-Nle-C-F-OH (peptide)
peptide: [pGlu]RKRLCHKGP[Nle]CF-OH
modifications: disulfide 6-12
SMILES: CCCC[C@@H]1NC(=O)[C@@H]2CCCN2C(=O)CNC(=O)[C@H](CCCCN)NC(=O)[C@H](Cc2c[nH]cn2)NC(=O)[C@@H](NC(=O)[C@H](CC(C)C)NC(=O)[C@H](CCCNC(=N)N)NC(=O)[C@H](CCCCN)NC(=O)[C@H](CCCNC(=N)N)NC(=O)[C@@H]2CCC(=O)N2)CSSC[C@@H](C(=O)N[C@@H](Cc2ccccc2)C(=O)O)NC1=O
B5: Example 26: pE-R-P-R-L-C-H-K-G-P-Nle-C-K(Lauroyl)-OH (peptide)
peptide: [pGlu]RPRLCHKGP[Nle]CK(Lauroyl)-OH
modifications: disulfide 6-12
SMILES: CCCCCCCCCCCC(=O)NCCCC[C@H](NC(=O)[C@@H]1CSSC[C@H](NC(=O)[C@H](CC(C)C)NC(=O)[C@H](CCCNC(=N)N)NC(=O)[C@@H]2CCCN2C(=O)[C@H](CCCNC(=N)N)NC(=O)[C@@H]2CCC(=O)N2)C(=O)N[C@@H](Cc2c[nH]cn2)C(=O)N[C@@H](CCCCN)C(=O)NCC(=O)N2CCC[C@H]2C(=O)N[C@@H](CCCC)C(=O)N1)C(=O)O
B6: Example 31: pE-F-P-R-L-C-H-K-G-P-Nle-C-F-OH (peptide)
peptide: [pGlu]FPRLCHKGP[Nle]CF-OH
modifications: disulfide 6-12
SMILES: CCCC[C@@H]1NC(=O)[C@@H]2CCCN2C(=O)CNC(=O)[C@H](CCCCN)NC(=O)[C@H](Cc2c[nH]cn2)NC(=O)[C@@H](NC(=O)[C@H](CC(C)C)NC(=O)[C@H](CCCNC(=N)N)NC(=O)[C@@H]2CCCN2C(=O)[C@H](Cc2ccccc2)NC(=O)[C@@H]2CCC(=O)N2)CSSC[C@@H](C(=O)N[C@@H](Cc2ccccc2)C(=O)O)NC1=O
B7: Example 33: pE-R-p-R-L-C-H-K-G-P-Nle-C-F-OH (peptide)
peptide: [pGlu]R[dP]RLCHKGP[Nle]CF-OH
modifications: disulfide 6-12
SMILES: CCCC[C@@H]1NC(=O)[C@@H]2CCCN2C(=O)CNC(=O)[C@H](CCCCN)NC(=O)[C@H](Cc2c[nH]cn2)NC(=O)[C@@H](NC(=O)[C@H](CC(C)C)NC(=O)[C@H](CCCNC(=N)N)NC(=O)[C@H]2CCCN2C(=O)[C@H](CCCNC(=N)N)NC(=O)[C@@H]2CCC(=O)N2)CSSC[C@@H](C(=O)N[C@@H](Cc2ccccc2)C(=O)O)NC1=O
B8: Example 38: pE-R-P-R-L-C-H-E-G-P-Nle-C-F-OH (peptide)
peptide: [pGlu]RPRLCHEGP[Nle]CF-OH
modifications: disulfide 6-12
SMILES: CCCC[C@@H]1NC(=O)[C@@H]2CCCN2C(=O)CNC(=O)[C@H](CCC(=O)O)NC(=O)[C@H](Cc2c[nH]cn2)NC(=O)[C@@H](NC(=O)[C@H](CC(C)C)NC(=O)[C@H](CCCNC(=N)N)NC(=O)[C@@H]2CCCN2C(=O)[C@H](CCCNC(=N)N)NC(=O)[C@@H]2CCC(=O)N2)CSSC[C@@H](C(=O)N[C@@H](Cc2ccccc2)C(=O)O)NC1=O
B9: Example 37: pE-R-P-R-K-C-H-K-G-P-Nle-C-F-OH (peptide)
peptide: [pGlu]RPRKCHKGP[Nle]CF-OH
modifications: disulfide 6-12
SMILES: CCCC[C@@H]1NC(=O)[C@@H]2CCCN2C(=O)CNC(=O)[C@H](CCCCN)NC(=O)[C@H](Cc2c[nH]cn2)NC(=O)[C@@H](NC(=O)[C@H](CCCCN)NC(=O)[C@H](CCCNC(=N)N)NC(=O)[C@@H]2CCCN2C(=O)[C@H](CCCNC(=N)N)NC(=O)[C@@H]2CCC(=O)N2)CSSC[C@@H](C(=O)N[C@@H](Cc2ccccc2)C(=O)O)NC1=O
B10: Example 35: pE-R-D-R-L-C-H-K-G-P-Nle-C-F-OH (peptide)
peptide: [pGlu]RDRLCHKGP[Nle]CF-OH
modifications: disulfide 6-12
SMILES: CCCC[C@@H]1NC(=O)[C@@H]2CCCN2C(=O)CNC(=O)[C@H](CCCCN)NC(=O)[C@H](Cc2c[nH]cn2)NC(=O)[C@@H](NC(=O)[C@H](CC(C)C)NC(=O)[C@H](CCCNC(=N)N)NC(=O)[C@H](CC(=O)O)NC(=O)[C@H](CCCNC(=N)N)NC(=O)[C@@H]2CCC(=O)N2)CSSC[C@@H](C(=O)N[C@@H](Cc2ccccc2)C(=O)O)NC1=O
B11: Example 30: pE-r-P-R-L-C-H-K-G-P-Nle-C-F-OH (peptide)
peptide: [pGlu][dR]PRLCHKGP[Nle]CF-OH
modifications: disulfide 6-12
SMILES: CCCC[C@@H]1NC(=O)[C@@H]2CCCN2C(=O)CNC(=O)[C@H](CCCCN)NC(=O)[C@H](Cc2c[nH]cn2)NC(=O)[C@@H](NC(=O)[C@H](CC(C)C)NC(=O)[C@H](CCCNC(=N)N)NC(=O)[C@@H]2CCCN2C(=O)[C@@H](CCCNC(=N)N)NC(=O)[C@@H]2CCC(=O)N2)CSSC[C@@H](C(=O)N[C@@H](Cc2ccccc2)C(=O)O)NC1=O
B12: Example 40: pE-R-P-E-L-C-H-K-G-P-Nle-C-F-OH (peptide)
peptide: [pGlu]RPELCHKGP[Nle]CF-OH
modifications: disulfide 6-12
SMILES: CCCC[C@@H]1NC(=O)[C@@H]2CCCN2C(=O)CNC(=O)[C@H](CCCCN)NC(=O)[C@H](Cc2c[nH]cn2)NC(=O)[C@@H](NC(=O)[C@H](CC(C)C)NC(=O)[C@H](CCC(=O)O)NC(=O)[C@@H]2CCCN2C(=O)[C@H](CCCNC(=N)N)NC(=O)[C@@H]2CCC(=O)N2)CSSC[C@@H](C(=O)N[C@@H](Cc2ccccc2)C(=O)O)NC1=O
B13: Example 32: pE-E-P-R-L-C-H-K-G-P-Nle-C-F-OH (peptide)
peptide: [pGlu]EPRLCHKGP[Nle]CF-OH
modifications: disulfide 6-12
SMILES: CCCC[C@@H]1NC(=O)[C@@H]2CCCN2C(=O)CNC(=O)[C@H](CCCCN)NC(=O)[C@H](Cc2c[nH]cn2)NC(=O)[C@@H](NC(=O)[C@H](CC(C)C)NC(=O)[C@H](CCCNC(=N)N)NC(=O)[C@@H]2CCCN2C(=O)[C@H](CCC(=O)O)NC(=O)[C@@H]2CCC(=O)N2)CSSC[C@@H](C(=O)N[C@@H](Cc2ccccc2)C(=O)O)NC1=O
B14: Example 36: pE-R-P-F-L-C-H-K-G-P-Nle-C-F-OH (peptide)
peptide: [pGlu]RPFLCHKGP[Nle]CF-OH
modifications: disulfide 6-12
SMILES: CCCC[C@@H]1NC(=O)[C@@H]2CCCN2C(=O)CNC(=O)[C@H](CCCCN)NC(=O)[C@H](Cc2c[nH]cn2)NC(=O)[C@@H](NC(=O)[C@H](CC(C)C)NC(=O)[C@H](Cc2ccccc2)NC(=O)[C@@H]2CCCN2C(=O)[C@H](CCCNC(=N)N)NC(=O)[C@@H]2CCC(=O)N2)CSSC[C@@H](C(=O)N[C@@H](Cc2ccccc2)C(=O)O)NC1=O
B15: Example 42: pE-R-P-R-D-C-H-K-G-P-Nle-C-F-OH (peptide)
peptide: [pGlu]RPRDCHKGP[Nle]CF-OH
modifications: disulfide 6-12
SMILES: CCCC[C@@H]1NC(=O)[C@@H]2CCCN2C(=O)CNC(=O)[C@H](CCCCN)NC(=O)[C@H](Cc2c[nH]cn2)NC(=O)[C@@H](NC(=O)[C@H](CC(=O)O)NC(=O)[C@H](CCCNC(=N)N)NC(=O)[C@@H]2CCCN2C(=O)[C@H](CCCNC(=N)N)NC(=O)[C@@H]2CCC(=O)N2)CSSC[C@@H](C(=O)N[C@@H](Cc2ccccc2)C(=O)O)NC1=O

These binders were tested against T1, human APJ receptor (hAPJ) (assay: cell-based or functional assay).

Row | Binder | hAPJ Ca2+ Flux EC50 [nM]
1 | [pGlu]RPCLCCKGP[Nle]CF-OH (disulfide 6-12, 4-7) [Example 28: pE-R-P-C-L-C-C-K-G-P-Nle-C-F-OH] | 5.68
2 | B1 | 8.2
3 | B2 | 6.91
4 | B3 | 65.5
5 | B4 | 3.21
6 | B5 | 29.8
7 | B6 | 84.1
8 | B7 | 8.1
9 | [pGlu]RCRLCCKGP[Nle]CF-OH (disulfide 6-12, 3-7) [Example 29: pE-R-C-R-L-C-C-K-G-P-Nle-C-F-OH] | 4.33
10 | B8 | 182
11 | B9 | 1.4
12 | B10 | 11.1
13 | B11 | 6.05
14 | [pGlu]RPRL[Orn]HFGP[Nle]D-Phenethylamine (lactam 6-12) [Example 3: pE-R-P-R-L-Orn-H-F-G-P-Nle-D-Phenethylamine] | 1010
15 | B12 | 7.99
16 | B13 | 518
17 | B14 | 7.36
18 | [pGlu]RPRL[Dab]HFGP[Nle]D-Phenethylamine (lactam 6-12) [Example 4: pE-R-P-R-L-Dab-H-F-G-P-Nle-D-Phenethylamine] | 747
19 | B15 | 92.8

— patent US8673848 (Novartis, dated 2014)
